# Where a chain is given by its changes, count along the chain named.
# B1: 14-bp DNA duplex (dsDNA)
# DNA 1: GGAGGCCTCCTGCT
# DNA 2: AGCAGGAGGCCTCC
# Experiments:
# hORC1 BAH E127G = target: T1, hORC1 BAH E127G (human, UniProt Q13415 45-171, E127G); test: EMSA
# T1 sequence: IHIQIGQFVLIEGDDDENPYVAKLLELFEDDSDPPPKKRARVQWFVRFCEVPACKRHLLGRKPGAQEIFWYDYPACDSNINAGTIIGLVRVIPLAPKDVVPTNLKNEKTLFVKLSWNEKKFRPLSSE
# hORC1 BAH F89S = target: T2, hORC1 BAH F89S (human, UniProt Q13415 45-171, F89S); test: EMSA
# T2 sequence: T1 sequence with F45S, G83E
binder,measurement,setting,value
B1,binding result,hORC1 BAH E127G,binds
same,binding result,hORC1 BAH F89S,binds
